How the values were obtained:
Experiment in all cases: cell-based or functional assay
[1] = molecular target: insulin receptor of C2C12 mouse myoblasts (mouse, UniProt P15208 28-1372)
IGF-IR [2] = molecular target: T1, IGF-IR (human, UniProt P08069 31-1367)
IGF-IR [3] = molecular target: T1, IGF-IR; remark: listed apart in the source

Sequence of insulin receptor of C2C12 mouse myoblasts (P15208 28-1372): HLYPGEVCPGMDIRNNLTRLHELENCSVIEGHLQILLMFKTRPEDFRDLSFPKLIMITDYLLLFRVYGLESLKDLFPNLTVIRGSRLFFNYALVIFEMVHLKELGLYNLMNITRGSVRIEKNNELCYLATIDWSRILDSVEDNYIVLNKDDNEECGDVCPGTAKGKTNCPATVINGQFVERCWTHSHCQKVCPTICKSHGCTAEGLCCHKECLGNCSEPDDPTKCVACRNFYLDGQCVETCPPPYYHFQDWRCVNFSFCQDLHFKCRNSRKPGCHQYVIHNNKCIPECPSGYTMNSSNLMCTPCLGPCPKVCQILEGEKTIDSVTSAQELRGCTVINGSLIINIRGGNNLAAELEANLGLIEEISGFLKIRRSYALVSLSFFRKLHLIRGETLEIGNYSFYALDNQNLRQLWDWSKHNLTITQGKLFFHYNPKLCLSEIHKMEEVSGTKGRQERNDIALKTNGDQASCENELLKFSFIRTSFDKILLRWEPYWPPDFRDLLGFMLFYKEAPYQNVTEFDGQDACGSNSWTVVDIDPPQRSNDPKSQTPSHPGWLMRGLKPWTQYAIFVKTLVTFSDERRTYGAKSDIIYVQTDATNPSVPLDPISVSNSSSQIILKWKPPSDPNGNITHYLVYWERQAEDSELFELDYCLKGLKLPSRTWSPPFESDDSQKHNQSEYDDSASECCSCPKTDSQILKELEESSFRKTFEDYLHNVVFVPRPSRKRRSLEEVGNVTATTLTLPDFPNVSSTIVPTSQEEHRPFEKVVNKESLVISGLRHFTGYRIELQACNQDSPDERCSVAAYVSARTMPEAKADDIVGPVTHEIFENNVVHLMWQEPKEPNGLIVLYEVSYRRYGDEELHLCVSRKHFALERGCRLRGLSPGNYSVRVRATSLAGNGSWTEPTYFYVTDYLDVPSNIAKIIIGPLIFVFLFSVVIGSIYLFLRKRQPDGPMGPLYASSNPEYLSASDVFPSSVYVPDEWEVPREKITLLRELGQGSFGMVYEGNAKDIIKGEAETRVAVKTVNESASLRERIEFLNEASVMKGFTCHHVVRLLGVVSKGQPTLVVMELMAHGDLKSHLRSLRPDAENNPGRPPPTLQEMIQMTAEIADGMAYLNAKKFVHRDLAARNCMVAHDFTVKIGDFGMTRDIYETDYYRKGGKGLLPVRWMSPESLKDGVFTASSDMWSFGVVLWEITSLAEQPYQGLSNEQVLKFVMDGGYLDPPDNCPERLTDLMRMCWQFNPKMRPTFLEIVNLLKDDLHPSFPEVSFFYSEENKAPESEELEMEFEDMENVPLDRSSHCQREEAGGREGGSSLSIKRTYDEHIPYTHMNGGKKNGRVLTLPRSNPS

Row | AKT phosphorylation activity (EC50) in C2C12 mouse myoblasts (HTRF phospho-S473) [1] [nM] | Activity in promoting MCF-7 proliferation (EC50), CellTiter-Glo (IGF-IR [2]) [nM] | EC50 for the activity in promoting MCF-7 proliferation, relative to LY3209590 (IGF-IR [3]) | Binder
1 | 456 |  |  | fusion protein 6 (insulin analog 5 + L2 + IgG2 Fc1) (Fc fusion) FVNQHLCGEHLVEALYLVCGERGFHYGGGGGSGGGGGIVEQCCESICSLEQLENYCGGGGGQGGGGQGGGGQGGGGGECPPCPAPPVAGPSVFLFPPKPKDTLMISRTPEVTCVVVDVSHEDPEVQFNWYVDGVEVHNAKTKPREEQFNSTFRVVSVLTVVHQDWLNGKEYKCKVSNKGLPAPIEKTISKTKGQPREPQVYTLPPSREEMTKNQVSLTCLVKGFYPSDIAVEWESNGQPENNYKTTPPMLDSDGSFFLYSKLTVDKSRWQQGNVFSCSVMHEALHNHYTQKSLSLSPG
2 | 194 | 31.2 |  | LY3209590 (Fc fusion) FVNQHLCGSHLVEALELVCGERGFHYGGGGGGSGGGGGIVEQCCTSTCSLDQLENYCGGGGGQGGGGQGGGGQGGGGGECPPCPAPPVAGPSVFLFPPKPKDTLMISRTPEVTCVVVDVSHEDPEVQFNWYVDGVEVHNAKTKPREEQFNSTFRVVSVLTVVHQDWLNGKEYKCKVSNKGLPAPIEKTISKTKGQPREPQVYTLPPSREEMTKNQVSLTCLVKGFYPSDIAVEWESNGQPENNYKTTPPMLDSDGSFFLYSKLTVDKSRWQQGNVFSCSVMHEALHNHYTQKSLSLSPG
3 | 133 |  |  | fusion protein 9 (insulin analog 6 + L2 + IgG2 Fc1) (Fc fusion) FVNQHLCGEHLVEALYLVCGERGFHYGGGGGGSGGGGGIVEQCCESICSLEQLENYCNHGGGQGGGGQGGGGQGGGGGECPPCPAPPVAGPSVFLFPPKPKDTLMISRTPEVTCVVVDVSHEDPEVQFNWYVDGVEVHNAKTKPREEQFNSTFRVVSVLTVVHQDWLNGKEYKCKVSNKGLPAPIEKTISKTKGQPREPQVYTLPPSREEMTKNQVSLTCLVKGFYPSDIAVEWESNGQPENNYKTTPPMLDSDGSFFLYSKLTVDKSRWQQGNVFSCSVMHEALHNHYTQKSLSLSPG
4 | 565 |  |  | fusion protein 4 (insulin analog 4 + L2 + IgG2 Fc1) (Fc fusion) FVKQHLCGEHLVEALYLVCGERGFHYGGGGGGSGGGGGIVEQCCESICSLEQLENYCGGGGGQGGGGQGGGGQGGGGGECPPCPAPPVAGPSVFLFPPKPKDTLMISRTPEVTCVVVDVSHEDPEVQFNWYVDGVEVHNAKTKPREEQFNSTFRVVSVLTVVHQDWLNGKEYKCKVSNKGLPAPIEKTISKTKGQPREPQVYTLPPSREEMTKNQVSLTCLVKGFYPSDIAVEWESNGQPENNYKTTPPMLDSDGSFFLYSKLTVDKSRWQQGNVFSCSVMHEALHNHYTQKSLSLSPG
5 | 28.6 |  |  | fusion protein 3 (insulin analog 3 + L2 + IgG2 Fc1) (Fc fusion) FVNQHLCGSHLVEALHLVCGERGFHYGGGGGGSGGGGGIVEQCCTSICSLEQLENYCNGGGGQGGGGQGGGGQGGGGGECPPCPAPPVAGPSVFLFPPKPKDTLMISRTPEVTCVVVDVSHEDPEVQFNWYVDGVEVHNAKTKPREEQFNSTFRVVSVLTVVHQDWLNGKEYKCKVSNKGLPAPIEKTISKTKGQPREPQVYTLPPSREEMTKNQVSLTCLVKGFYPSDIAVEWESNGQPENNYKTTPPMLDSDGSFFLYSKLTVDKSRWQQGNVFSCSVMHEALHNHYTQKSLSLSPG
6 | 544 |  |  | fusion protein 8 (insulin analog 1 + L2 + IgG2 Fc1) (Fc fusion) FVNQHLCGEHLVEALYLVCGERGFHYGGGGGGSGGGGGIVEQCCESICSLEQLENYCGGGGGAGGGGAGGGGAGGGGGECPPCPAPPVAGPSVFLFPPKPKDTLMISRTPEVTCVVVDVSHEDPEVQFNWYVDGVEVHNAKTKPREEQFNSTFRVVSVLTVVHQDWLNGKEYKCKVSNKGLPAPIEKTISKTKGQPREPQVYTLPPSREEMTKNQVSLTCLVKGFYPSDIAVEWESNGQPENNYKTTPPMLDSDGSFFLYSKLTVDKSRWQQGNVFSCSVMHEALHNHYTQKSLSLSPG
7 | 490 | 280 |  | fusion protein 1 (insulin analog 1 + L2 + IgG2 Fc1) (Fc fusion) FVNQHLCGEHLVEALYLVCGERGFHYGGGGGGSGGGGGIVEQCCESICSLEQLENYCGGGGGQGGGGQGGGGQGGGGGECPPCPAPPVAGPSVFLFPPKPKDTLMISRTPEVTCVVVDVSHEDPEVQFNWYVDGVEVHNAKTKPREEQFNSTFRVVSVLTVVHQDWLNGKEYKCKVSNKGLPAPIEKTISKTKGQPREPQVYTLPPSREEMTKNQVSLTCLVKGFYPSDIAVEWESNGQPENNYKTTPPMLDSDGSFFLYSKLTVDKSRWQQGNVFSCSVMHEALHNHYTQKSLSLSPG
8 | 90.5 |  | ~2 fold of the EC50 of LY3209590 | fusion protein 2 (insulin analog 2 + L2 + IgG2 Fc1) (Fc fusion) FVNQHLCGSHLVEALYLVCGERGFHYGGGGGGSGGGGGIVEQCCHSICSLEQLENYCGGGGGQGGGGQGGGGQGGGGGECPPCPAPPVAGPSVFLFPPKPKDTLMISRTPEVTCVVVDVSHEDPEVQFNWYVDGVEVHNAKTKPREEQFNSTFRVVSVLTVVHQDWLNGKEYKCKVSNKGLPAPIEKTISKTKGQPREPQVYTLPPSREEMTKNQVSLTCLVKGFYPSDIAVEWESNGQPENNYKTTPPMLDSDGSFFLYSKLTVDKSRWQQGNVFSCSVMHEALHNHYTQKSLSLSPG
9 | 320 |  |  | fusion protein 5 (insulin analog 1 + L2 + IgG2 Fc1) (Fc fusion) FVNQHLCGEHLVEALYLVCGERGFHYGGGGGGSGGGGGIVEQCCESICSLEQLENYCGGGGGQGGGGQGGGGQGGGGQGGGGQECPPCPAPPVAGPSVFLFPPKPKDTLMISRTPEVTCVVVDVSHEDPEVQFNWYVDGVEVHNAKTKPREEQFNSTFRVVSVLTVVHQDWLNGKEYKCKVSNKGLPAPIEKTISKTKGQPREPQVYTLPPSREEMTKNQVSLTCLVKGFYPSDIAVEWESNGQPENNYKTTPPMLDSDGSFFLYSKLTVDKSRWQQGNVFSCSVMHEALHNHYTQKSLSLSPG
10 | 280 |  |  | fusion protein 7 (insulin analog 1 + L2 + IgG2 Fc1) (Fc fusion) FVNQHLCGEHLVEALYLVCGERGFHYGGGGGGSGGGGGIVEQCCESICSLEQLENYCGPGPQPGPQPGPQPGPQPGPQPGPQPGPQPGPQECPPCPAPPVAGPSVFLFPPKPKDTLMISRTPEVTCVVVDVSHEDPEVQFNWYVDGVEVHNAKTKPREEQFNSTFRVVSVLTVVHQDWLNGKEYKCKVSNKGLPAPIEKTISKTKGQPREPQVYTLPPSREEMTKNQVSLTCLVKGFYPSDIAVEWESNGQPENNYKTTPPMLDSDGSFFLYSKLTVDKSRWQQGNVFSCSVMHEALHNHYTQKSLSLSPG
